This note sets out measurements from patent US20260258153A1 (WISTAR INSTITUTE OF ANATOMY AND BIOLOGY, published 2026).

The experiment has as its target carbonic anhydrase 9 (CA9) (UniProt Q16790 38-459). The experiment in a line: cell-based or functional assay.

B1: BTE (canonical CA9 x CD3 bispecific T cell engager; G37_DBiTE, Non-HLV) (bispecific antibody)
chain: QSVLTQPPSVSGAPGQRVTISCTGSSSNIGAGYDVHWYQHLPGTAPKLLIYGNSNRPSGVPDRFSGSKSGTSASLAITGLQAEDETDYFCQSYDSSLSAWVFGGGTKVTVLGGGGSGGGGSGGGGSQVQLVQSGGGVVQPGGSLRLSCAASGFPFSSYAMSWVRQAPGKGLEWVSAISANGGTTYYADSVKGRFTISRDNSKNTLYLQMNSLRAEDTAVYYCANNGNYRGAFDIWGQGTMVTVSSGGGGSEVQLVESGGGLVQPGGSLRLSCAASGYSFTGYTMNWVRQAPGKGLEWVALINPYKGVSTYNQKFKDRFTISVDKSKNTAYLQMNSLRAEDTAVYYCARSGYYGDSDWYFDVWGQGTLVTVSSGGGGSGGGGSGGGGSDIQMTQSPSSLSASVGDRVTITCRASQDIRNYLNWYQQKPGKAPKLLIYYTSRLESGVPSRFSGSGSGTDYTLTISSLQPEDFATYYCQQGNTLPWTFGQGTKVEIKSSHHHHHH
In the case of B1, the “EC50 (pM), cell line 293T-CA9” value stood at 13.2 pM; the “EC50 (pM), cell line 786-O” value was 82.5 pM; the “EC50 (pM), cell line A-498” value was 21.4 pM; the “EC50 (pM), cell line ACHN-CA9” value amounted to 38.7 pM. Also, the “EC50 (pM), cell line SKRC-52” value was found to be 1.5 pM.
